Source: the supplement of paper PMC9170038

System: MS2 coat protein
Test: apparent KD of MS2 coat protein; higher = weaker reporter binding
Settings: Eterna round: R107
Method in brief: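 Apparent KD was obtained for each design as the median of normalised binding-curve fits over its clusters. RNA switches transcribed on-chip from Illumina sequencing clusters were titrated with SNAP-549-labelled MS2 coat protein (twofold steps, 0.7 or 1.5 nM to 3 µM) in 100 mM Tris-HCl pH 7.5, 80 mM KCl, 4 mM MgCl2, without or with constant ligand.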

[1] = input ligand: theophylline 20 uM
[2] = input ligand: theophylline 2 mM
[3] = input ligand: tryptophan 2.4 mM

Sequence	apparent KD of MS2 coat protein (input ligand: arginine 13.2 mM)	apparent KD of MS2 coat protein (input ligand: none)	apparent KD of MS2 coat protein [1]	apparent KD of MS2 coat protein [2]	apparent KD of MS2 coat protein [3]
GGACCAUGGCGCGAUACCAGCUUGAGUGUACUGGCCAGGUACAUGAGGAUCACCCAUGUAAGCCCUUGGCAGCGCGCCAUGGUCC [#1 Exclusion - Theophylline B Attempt #24 (HarryS)]	10.4 nM	10.3 nM	16.1 nM	36.5 nM	10.7 nM
GGACUAACUGGAAGGAGCGACGCGCAGAAACUGCAAUUUCCUCCACACGAGGAUCACCCGUGUCAGGUAGGUCGCCAGUUAGUCG [ArgBX 29]	19.1 nM	16.7 nM	24.7 nM	21.1 nM	18.6 nM
GGAUAGGACACGGCCGCCACUACCUAGGAUACUAGCAACAUUUGGGUAUAUGAGGAUCACCCAUAUAGGACCGGGUGUCCUAUCG	48.5 nM	75.8 nM	88 nM	95.2 nM	102 nM
GGAUAUGGUGAAAGAGAGAAGAGAGAUGAUACCAGUAAGAGAAGAUGCCCUUGGCAGCAUAGAGACAUGAGGAUCACCCAUGUAA [solution]	12 nM	22.9 nM	25.2 nM	24.3 nM	15.6 nM
GGCACAUAGUCGGCCGCCACUAGAAUAAGAAGGGAAAACAUGAGGAUCACCCAUGUAAAAGGGACUAGGACCGGGACUAUGUGCC [Shrew]	14.5 nM		18.2 nM	17 nM	
GGCACCGGGCGAAGGAGCGUGAAGACAUGAGGAUCACCCAUGUAGAGGCCCGGACAGGGUUCGCAGGUAGGUCGCGCGCGGUGCC [#1 Same State - Arginine B Attempt #8 (HarryS)]	21.2 nM	14.5 nM	22.3 nM	16.8 nM	16.9 nM
GGCAGUCAUAGGAGGGCAAAUAUACUCGAAGGAGCGUCAUAGUAGGCAGGUAGGUCGCGAGACAUGAGGAUCACCCAUGUAGAGA [wwzmullin]	20.2 nM	66.9 nM	106 nM	125 nM	90.5 nM
GGCCCGGACUUGGAAUGGGUGUUUCCCUCACGAGGACCGGUACGGCCGCCACUCGAAGACAUGAGGAUCACCCAUGUAGUCGACA [Qudirate]	31.2 nM		78 nM	138 nM	
GGCCCGGACUUGGAAUGGGUGUUUCCUUCACGAGGACCGGUACGGCCGCCACUCGAAGACAUGAGGAUCACCCAUGUAGUCGACC [Soleti]	20.3 nM	21.7 nM	100 nM	41.1 nM	18.2 nM
GGGACAUGAGGAUCACCCAUGUACCGGUCCCGAGGACCGGUACGGCCGCCACUCGAUGACCUCAUAGUCUGCUGGAGCAGCAGAC [Usesedarin]		54.6 nM	108 nM	84.3 nM	330 nM
GGGCAAGAGGGAAGGAGCGUCGGCUGGGUAACAUGAGGAUCACCCAUGUAGCACAUGGUGUGGCAGGUAGGUCGCCCUCUGCCCU [SS-ArgB9]	71.1 nM	102 nM	153 nM	133 nM	103 nM
GGGCCCGGGCGCGAGCCCGGGCCCAUUGAUACCAGUGAAAAUAUACGCCCUUGGCAGCGAAUCCUAACAUGAGGAUCACCCAUGU [5.A]	37.7 nM	37.2 nM	65.7 nM	70.9 nM	33.4 nM
GGGCCCGGGCGCGAGCCCGGGCCCAUUGAUACCAGUGAGAGAGAGCGCCCUUGGCAGCGAAUCCUAACAUGAGGAUCACCCAUGU [5.N]	49.5 nM	51.6 nM	84.6 nM	84.3 nM	41.6 nM
GGGCCCGGGCGCGAGCCCGGGCCCAUUGAUACCAGUGAUAUAUAGCGCCCUUGGCAGCGAAUCCUAACAUGAGGAUCACCCAUGU [5.I]	23.7 nM	38.8 nM	65.2 nM	53.2 nM	42.7 nM
GGGCCUACCUGAAGGAGCGACAUGAGGAUCACCCAUGUCUCCCGUUAUGGGAGUUCUUUAGGUCAGGUAGGUCGCAGGUAGGGCC [#1 Exclusion - Arginine B Attempt #4 (Inspired by Omei)]	15.3 nM	12.6 nM	17 nM	14.1 nM	14.1 nM
GGGCGACAUGAGGAUCACCCAUGUGUCGAUACCAGUAUGAAUUUCUACCCUUGGCAGCGACGACACGGUUAUUUGUGCACUUCGA [theeternabot_sameState_MS2_Theo_A_5]	77.5 nM		114 nM		95.6 nM
GGGCGCUAUCCCGCGAGGGAUAGCGUUCGACGAGGACCGGUACGGCCGCCACUCGAACGAGUGGUGACAUGAGGAUCACCCAUGU [Naa]	28.7 nM	53 nM	56.7 nM	59.4 nM	49.7 nM
GGGCGCUAUCCCGCGAGGGAUAGCGUUCUUCGAGGACCGGUACGGCCGCCACUCGAACGAGUGGUGACAUGAGGAUCACCCAUGU [Paa]	35.6 nM	63.6 nM	75 nM	81.1 nM	58.7 nM
GGGCUGUGACCAGGAAAUGGUCACAGCCCACGAGGACCGGUACGGCCGCCACUCGAAAGUACAUGAGGAUCACCCAUGUCGGUGG [#1 Same State - Tryptophan A Attempt #8 (HarryS)]	25.9 nM	34.1 nM	30.6 nM	37.9 nM	50.9 nM

Sequence	apparent KD of MS2 coat protein (input ligand: arginine 13.2 mM)	apparent KD of MS2 coat protein (input ligand: none)	apparent KD of MS2 coat protein [1]	apparent KD of MS2 coat protein [2]	apparent KD of MS2 coat protein [3]
GGGUACAUCGCGGCCGCCACUCGUGUAAAUACAUGAGGAUCACCCAUGUCGAUGGAGACAUCGGAGAGGACCGGGUGAUGUACCG	110 nM	81 nM	114 nM	81.5 nM	46.7 nM
GGUAUGUAUUCGGAAACGAAUGCAUACCAUCGAGGACCGGUACGGCCGCCACUCGUGGCUGAUCAACAUGAGGAUCACCCAUGUA [Ex Tryptophan A 1]	36.1 nM	85.9 nM	94.3 nM	83.4 nM	50.4 nM
GGUCGCCUACAUGGGUAGGCGAUUUUGGAAGGAGCGAGCGAGAGCUCAGGUAGGUCGCCAGCACAUGAGGAUCACCCAUGUUUUU [SSArg-A #25 Weakened 1st state]	20.8 nM	16.1 nM	20.9 nM	21.8 nM	18.7 nM
GGUGGCGGGACUGAUACCAGCCACCACCGAUAGACCACAUGAGGAUCACCCAUGUUGGGUGGCCCUUGGCAGCAGUCUUGCGGCU [#1 Same State - Theophylline B Attempt #14 (HarryS)]	46.8 nM	797 nM	523 nM	163 nM	739 nM
GGUGGCGGGACUGAUACCAGCCACCACCGAUAGACCACAUGAGGAUCACCCAUGUUGGGUGGCCCUUGGCAGCAGUCUUGCGUCG [#1 Same State - Theophylline B Attempt #16 (HarryS)]	35.9 nM	149 nM	92.9 nM	21 nM	323 nM
GGUGGCGUGACGGAUACCAGCCACCACCGCAAGGCCACAUGAGGAUCACCCAUGUUGGGUGGCCCUUGGCAGCUGUCGUGCGGCG [#1 Same State - Theophylline B Attempt #20 (HarryS)]	451 nM	263 nM	324 nM	431 nM	341 nM
GGUGGCGUGACGGAUACCAGCCACCGCCGCAAGGCCACAUGAGGAUCACCCAUGUUGGGUGGCCCUUGGCAGCUGUCGUGCGGCG [#1 Same State - Theophylline B Attempt #21 (HarryS)]	121 nM		464 nM		378 nM
GGUUACUCUACGGCCGCCACUGUAAUGUAAAGAUACCUGUACAUGACAUGAGGAUCACCCAUGUGCAGGACCGGGUAGUGUAACC [Tryptophan B 19]	50.6 nM	61.6 nM	93.6 nM	70 nM	19.8 nM
GUACAUGAGGAUCACCCAUGUAUAGUUGAAGGAGCGACCGGUGGGUCAGGUAGGUCGCAGCGCAUGGCGUCCACGCGUGUAUGCC [#1 Exclusion - Arginine A Attempt #29 (Inspired by Pi)]	10.3 nM	12.3 nM	17.1 nM	11.1 nM	11.9 nM
GUACCGUAAACGGCCGCCACUGACAUGAGGAUCACCCAUGUGCUGGUGGUGCACAACCUCAGGUUCAGGACCGGGUUUCCGAGCU [theeternabot_exclusion_MS2_Trp_B_50]	23 nM		45.3 nM	32.2 nM	
GUAGCUAUCGCGGCCGCCACUAAACCGGAAACGGAACAGUAGGAUCACCAUUGUGGCGAAAGCCAUAGGACCGGGCGAUAGCUAC [TryBS - Double Magnet system 2]	601 nM	502 nM	830 nM	1210 nM	80 nM
GUAUGGAAACAUACUUGGGUAUCAUGAGAUACCAGUACAGAAAUGUACCCUUGGCAGCUCAAGCAUACAUGAGGAUCACCCAUGU [Ex Theophylline A 8]	22.5 nM		22.5 nM		15.4 nM
GUCCUCAUGACGGCCGCCACUACACAUGAGGAUCACCCAUGUAAUGAUCCCUUAAAUGAUAAUAGUAGGACCGGGUCACUGUAAG [Same State Typptophan B GF12]	119 nM		569 nM	743 nM	
GUCUCUGAGAGAAGGAGCGUGAAGACAUGAGGAUCACCCAUGUAGAGGCGCCGAAGGCGUUCGCAGGUAGGUCGCUCUCAGAGAC [#1 Same State - Arginine B Attempt #20 (HarryS)]	15.2 nM	15.5 nM	23.8 nM	17.5 nM	18.4 nM
GUGCGGUUUGAUGAUACCAGAUGUGGUGGGAACAUGAGGAUCACCCAUGUUGUGAAACAGGUCCCUUGGCAGCAUGAGUGAGCUU [TheoB-ms2@32-1]	97.3 nM	103 nM	255 nM	290 nM	55.5 nM
GUUGGAUUUUCGGCCGCCACUGAGAGAGUCAUGUGAACAUGAGGAUCACCCAUGUAAUAUAUAUACAGGACCGGGAGGGUUGUAA [4.L]	35 nM	14.6 nM	26.3 nM	18.6 nM	13.5 nM
GUUUAAAGGUCGGCCGCCACUGUAGGAUGUGUUCUUUCACAUGAGGAUCACCCAUGUUGUUAUUAUAGGACCGGGAUUUUAGGAC [39MS split4]	25.8 nM		33.1 nM	27.4 nM	
UAAACACAUGAGGAUCACCCAUGUCAUGAUACCAGUCAACAUGAGGACCCUUGGCAGCAUAAAAUGGGUAACAUGAGGAUCACCC [AstrosEXyTheA#2]	46.2 nM		78.4 nM		51.5 nM
UAAACAUGAGGAUCACCCAUGUUGGAUGAAGGAGCGACCAGAGGGUCAGGUAGGUCGCAUCACAUGAGGAUCACCCAUGUCAUUU [DOUBLE!!! :-D #12]	59.1 nM	108 nM	114 nM	147 nM	97.7 nM
